The results in this text go back to publication PMC8500521.

Experiment [1] concerns the target 6HB (HR1-linker-HR2) of SARS-CoV-2 fusion protein (SARS-CoV-2) (UniProt P0DTC2). Description: SEC-MALS; Superose-12, room temperature, 20 mM sodium phosphate pH 6.0, 30 mM NaCl; injected 65 uM 6HB, 90 uM HR1.
Experiment [2] has the same target. Description: AUC; sedimentation velocity, 50,000 rpm, 20 C, 50 mM NaCl, 25 mM sodium phosphate pH 6.0, no detergent; monomer to tetramer.
Experiment [3] addresses HR1 (heptad repeat 1) domain of SARS-CoV-2 spike protein (SARS-CoV-2) (UniProt P0DTC2). Described as above.

For “6HB (HR1-linker-HR2) of SARS-CoV-2 fusion protein (from UniProt P0DTC2 918-965; P0DTC2 1171-1207)”, the stoichiometry N in experiment [1] and in experiment [2] was 3 in each case.
Consider “HR1 (heptad repeat 1) domain of SARS-CoV-2 spike protein (from UniProt P0DTC2 918-965) (domain or fragment)”, for which the stoichiometry N in experiment [3] is 4.
